{
  "source": "paper PMC12193508",
  "key": {"[1]": {"molecular_target": "MMsHsp (sHsp of Methanococcus maripaludis) (Methanococcus maripaludis)", "test": "AUC; sedimentation velocity at 40 °C, 0.1 mg/mL, 40,000 rpm, Rayleigh interference optics, c(s20,w) with SEDFIT; oligomers of one protein"}, "[2]": {"molecular_target": "MMsHsp (sHsp of Methanococcus maripaludis) (Methanococcus maripaludis)", "test": "AUC; sedimentation velocity at 40 °C, 1.0 mg/mL, 40,000 rpm, Rayleigh interference optics, c(s20,w) with SEDFIT; oligomers of one protein"}},
  "data": [
    {"substance": "MMsHsp (sHsp of Methanococcus maripaludis) (natural protein)", "values": [
      {"measurement": "w, weight fraction of peak a (N 2)", "setting": "[1]", "result": 31.3, "unit": "%"},
      {"measurement": "w, weight fraction of peak b (N 8)", "setting": "[1]", "result": 4.2, "unit": "%"},
      {"measurement": "w, weight fraction of peak c (N 18)", "setting": "[1]", "result": 10.9, "unit": "%"},
      {"measurement": "w, weight fraction of peak d (N 24)", "setting": "[1]", "result": 53.6, "unit": "%"},
      {"measurement": "stoichiometry N", "setting": "[2]", "result": 16},
      {"measurement": "w, weight fraction of peak a (N 2)", "setting": "[2]", "result": 16.8, "unit": "%"},
      {"measurement": "w, weight fraction of peak b (N 8)", "setting": "[2]", "result": 4.6, "unit": "%"},
      {"measurement": "w, weight fraction of peak c (N 17)", "setting": "[2]", "result": 5.3, "unit": "%"},
      {"measurement": "w, weight fraction of peak d (N 24)", "setting": "[2]", "result": 73.3, "unit": "%"}
    ]}
  ]
}
